Assay results published in patent publication CN111732659A.

Columns and labels:
[1] = biological target: GPC3ΔGPI-FLAG重组蛋白 (Homo sapiens (Human)) (UniProt P51654); experiment: ELISA on coated GPC3ΔGPI-FLAG after serum incubation of the antibody
[2] = biological target: mCherry-GPC3 (stably expressed on HEK293T cells) (UniProt P51654); experiment: immunofluorescence colocalisation on HEK293T cells expressing mCherry-GPC3, confocal microscopy

| decrease of antigen binding (ELISA OD450) after 72 h at 37°C in FBS against 0 h [1] | 皮尔森相关系数 (mCherry and Alexa Fluor 488 signals) [2] | Molecule |
| --- | --- | --- |
| 55.5% | – | HN3-hFc融合抗体 (Fc fusion) |
| 0.6% | 0.803 | 纳米抗体G64 (G64-His) (VHH, not shown: small tags and cut ends) VHH: QVQLVESGGALVQPGGSLRLSCAASGRGADTLSLRWYRQAPGKEREWVCGISWLMTTYSYEDSVKGRFTCSRDDARNTVYLQLNSLKPEDTAVYYCASRPRFLEEQLQVSSYWGQGTQVTVSS |
